Measured values as given in patent US6001988, “High affinity nucleic acid ligands to lectins” (NeXstar Pharmaceuticals, Inc.).

Legend:
L-selectin (LS-Rg) [1] = molecular target: T1, L-selectin (LS-Rg) (Homo sapiens, UniProt P14151 P14151:39-332); assay: filter; room temp; 1.8 nM at 37 C; settings: tags: human IgG2 Fc fusion (provided by A. Varki), label: 32P
T1 chain: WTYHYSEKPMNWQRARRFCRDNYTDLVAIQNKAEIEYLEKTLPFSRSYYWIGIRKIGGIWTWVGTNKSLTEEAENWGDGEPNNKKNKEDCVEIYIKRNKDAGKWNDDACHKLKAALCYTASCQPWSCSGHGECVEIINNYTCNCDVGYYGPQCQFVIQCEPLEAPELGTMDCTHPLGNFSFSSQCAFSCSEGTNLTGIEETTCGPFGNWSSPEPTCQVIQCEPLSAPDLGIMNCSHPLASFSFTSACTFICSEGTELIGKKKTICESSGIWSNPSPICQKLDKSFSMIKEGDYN

L-selectin (LS-Rg) [2] = molecular target: T1, L-selectin (LS-Rg); assay: filter; room temp; 6.8 nM at 37 C; settings: tags: human IgG2 Fc fusion (provided by A. Varki); label: 32P; hairpin
E-selectin (ES-Rg) = molecular target: T2, E-selectin (ES-Rg) (Homo sapiens, UniProt P16581 P16581:22-556); assay: filter; room temp, Ca/Mg buffer; settings: tags: extracellular domain fused to human IgG1 Fc (provided by A. Varki); chain copies: 2 (dimeric Fc chimera, inferred)
T2 chain: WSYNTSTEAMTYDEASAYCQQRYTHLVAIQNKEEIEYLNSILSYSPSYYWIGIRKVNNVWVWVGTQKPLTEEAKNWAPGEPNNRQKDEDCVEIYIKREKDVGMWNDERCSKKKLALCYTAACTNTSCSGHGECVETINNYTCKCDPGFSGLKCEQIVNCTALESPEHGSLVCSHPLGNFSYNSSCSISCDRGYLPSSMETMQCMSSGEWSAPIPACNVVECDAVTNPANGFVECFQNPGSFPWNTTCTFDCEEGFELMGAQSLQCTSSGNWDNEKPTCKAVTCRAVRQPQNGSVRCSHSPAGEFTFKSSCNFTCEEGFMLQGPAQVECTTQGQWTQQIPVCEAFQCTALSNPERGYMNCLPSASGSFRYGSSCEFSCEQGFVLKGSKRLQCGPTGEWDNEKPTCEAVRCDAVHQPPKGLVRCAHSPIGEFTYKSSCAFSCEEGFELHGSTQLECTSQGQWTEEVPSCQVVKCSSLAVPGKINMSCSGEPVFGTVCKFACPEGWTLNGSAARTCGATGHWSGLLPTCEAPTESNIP
Protocol: (§1) RNA was reverse transcribed into cDNA by AMV reverse transcriptase at 48° C. for 60 min in 50 mM Tris-Cl pH (8.3), 60 mM NaCl, 6 mM Mg(OAc)_2, 10 mM DTT, 100 pmol DNA primer, 0.4 mM each of dNTPs, and 0.4 unit/µl AMV RT. […] C) Nitrocellulose Filter Partitioning As described in SELEX Patent Applications, the nitrocellulose filter partitioning method was used to determine the affinity of RNA ligands for WGA and for other proteins. Filter discs (nitrocellulose/cellulose acetate mixed matrix, 0.45 µm pore size, Millipore; or pure nitrocellulose, 0.45 µm pore size, Bio-Rad) were placed on a vacuum manifold and washed with 4 ml of HBSS buffer under vacuum. Reaction mixtures, containing ^32P labeled RNA pools and unlabeled WGA, were incubated in HBSS for 10 min at room temperature, filtered, and then immediately washed with 4 ml HBSS. The filters were air-dried and counted in a Beckman LS6500 liquid scintillation counter without fluor. WGA is a homodimer, molecular weight 43.2 kD, with 4 GlcNAc binding sites per dimer. For affinity calculations, we assume one RNA ligand binding site per monomer (two per dimer). The monomer concentration is defined as 2 times the dimer concentration. The equilibrium dissociation constant, K_d, for an RNA pool or specific ligand that binds monophasically is given by the equation $$K_d=[P_f][R_f]/[RP]$$
(§2) The affinity of representative cloned ligands for LS-Rg, ES-Rg, PS-Rg, CD22β-Rg and WGA was determined by nitrocellulose partitioning and the results shown in Table XIV. The ligands are highly specific for L-selectin.
(§3) *Kds were determined at room temperature.

P-selectin (PS-Rg) = molecular target: T3, P-selectin (PS-Rg) (Homo sapiens, UniProt P16109 P16109:42-321); assay: filter; room temp, Ca/Mg buffer; settings: tags: lectin, EGF and first two CRD domains fused to human IgG1 Fc (provided by A. Varki); chain copies: 2 (dimeric Fc chimera, inferred)
T3 chain: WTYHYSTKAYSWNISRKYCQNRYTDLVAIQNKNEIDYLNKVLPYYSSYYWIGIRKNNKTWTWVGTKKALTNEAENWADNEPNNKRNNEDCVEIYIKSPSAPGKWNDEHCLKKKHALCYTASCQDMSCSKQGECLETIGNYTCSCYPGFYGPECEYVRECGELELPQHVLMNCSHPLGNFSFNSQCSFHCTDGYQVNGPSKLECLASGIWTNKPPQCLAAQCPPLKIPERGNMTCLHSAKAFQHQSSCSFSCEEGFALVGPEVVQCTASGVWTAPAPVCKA
Protocol: as §1, §2, §3

L-selectin (LS-Rg) [3] = molecular target: T1, L-selectin (LS-Rg); assay: filter; room temp; 11.8 nM at 37 C; settings: tags: human IgG2 Fc fusion (provided by A. Varki); label: 32P; hairpin
L-selectin (LS-Rg) [4] = molecular target: T1, L-selectin (LS-Rg); assay: filter; room temp; 590 pM at 37 C; settings: tags: human IgG2 Fc fusion (provided by A. Varki); label: 32P; hairpin
L-selectin (LS-Rg) [5] = molecular target: T1, L-selectin (LS-Rg); assay: filter; apparently 37 C column; synthetic full-length 201 control 3.8 nM; settings: tags: human IgG2 Fc fusion (provided by A. Varki); label: 32P; hairpin
L-selectin (LS-Rg) [6] = molecular target: T1, L-selectin (LS-Rg); assay: filter; room temp; 8.4 nM at 37 C; settings: tags: human IgG2 Fc fusion (provided by A. Varki); label: 32P
L-selectin (LS-Rg) [7] = molecular target: T1, L-selectin (LS-Rg); assay: filter; room temp; 6.0 nM at 37 C; settings: tags: human IgG2 Fc fusion (provided by A. Varki); label: 32P
L-selectin (LS-Rg) [8] = molecular target: T1, L-selectin (LS-Rg); assay: filter; room temp; 9.6 nM at 37 C; settings: tags: human IgG2 Fc fusion (provided by A. Varki); label: 32P
[9] = molecular target: T4, Ulex europaeus lectin UEA-II (Ulex europaeus, UniProt P22973 P22973:1-249); assay: filter; HBSS, room temp; settings: tags: E Y Laboratories; label: 32P
T4 sequence: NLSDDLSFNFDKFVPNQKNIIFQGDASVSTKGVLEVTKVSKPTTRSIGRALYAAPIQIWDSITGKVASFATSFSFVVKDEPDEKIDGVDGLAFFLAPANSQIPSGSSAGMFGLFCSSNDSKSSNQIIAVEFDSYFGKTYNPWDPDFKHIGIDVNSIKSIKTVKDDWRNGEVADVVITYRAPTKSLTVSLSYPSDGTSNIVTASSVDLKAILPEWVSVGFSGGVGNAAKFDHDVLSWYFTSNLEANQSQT
Protocol: as §1, with “The specifically eluted fraction was processed for use in the following round. Fractions eluted from immobilized WGA were heated at 90° C. for 5 minutes in 1% SDS, 2% β-mercaptoethanol and extracted with phenol/chloroform. RNA was” for “RNA was”, “per dimer). […]” for “per dimer). The monomer concentration is defined as 2 times the dimer concentration. The equilibrium dissociation constant, K_d, for an RNA pool or specific ligand that binds monophasically is given by the equation $$K_d=[P_f][R_f]/[RP]$$”

[10] = molecular target: T5, wheat germ agglutinin (WGA) (Triticum vulgare, UniProt P10968 P10968:27-197); assay: filter; HBSS, room temp; printed as 11.2, SEQ 40; settings: tags: free lectin, E Y Laboratories; label: 32P
T5 sequence: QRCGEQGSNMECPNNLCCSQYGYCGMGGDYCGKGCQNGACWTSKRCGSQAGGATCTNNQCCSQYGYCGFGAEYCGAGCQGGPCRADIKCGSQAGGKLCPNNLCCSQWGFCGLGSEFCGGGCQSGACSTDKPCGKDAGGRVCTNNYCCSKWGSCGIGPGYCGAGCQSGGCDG
Protocol: The specifically eluted fraction was processed for use in the following round. Fractions eluted from immobilized WGA were heated at 90° C. for 5 minutes in 1% SDS, 2% β-mercaptoethanol and extracted with phenol/chloroform. RNA was reverse transcribed into cDNA by AMV reverse transcriptase at 48° C. for 60 min in 50 mM Tris-Cl pH (8.3), 60 mM NaCl, 6 mM Mg(OAc)_2, 10 mM DTT, 100 pmol DNA primer, 0.4 mM each of dNTPs, and 0.4 unit/µl AMV RT. […] C) Nitrocellulose Filter Partitioning As described in SELEX Patent Applications, the nitrocellulose filter partitioning method was used to determine the affinity of RNA ligands for WGA and for other proteins. Filter discs (nitrocellulose/cellulose acetate mixed matrix, 0.45 µm pore size, Millipore; or pure nitrocellulose, 0.45 µm pore size, Bio-Rad) were placed on a vacuum manifold and washed with 4 ml of HBSS buffer under vacuum. Reaction mixtures, containing ^32P labeled RNA pools and unlabeled WGA, were incubated in HBSS for 10 min at room temperature, filtered, and then immediately washed with 4 ml HBSS. The filters were air-dried and counted in a Beckman LS6500 liquid scintillation counter without fluor. […]
The dissociation constants for representative members of families 1–9 and orphan ligands were determined by nitrocellulose filter binding experiments and are listed in Table III. […]

L-selectin (LS-Rg) [11] = molecular target: T1, L-selectin (LS-Rg); assay: filter; room temp; 0.65 nM at 37 C; settings: tags: human IgG2 Fc fusion (provided by A. Varki); label: 32P; hairpin
L-selectin (LS-Rg) [12] = molecular target: T1, L-selectin (LS-Rg); assay: filter; room temp; 23.2 nM at 37 C; settings: tags: human IgG2 Fc fusion (provided by A. Varki); label: 32P; hairpin
L-selectin (LS-Rg) [13] = molecular target: T1, L-selectin (LS-Rg); assay: filter; room temp; 8.8 nM at 37 C; settings: tags: human IgG2 Fc fusion (provided by A. Varki); label: 32P; hairpin

B1: 128 (ssDNA)
DNA: CTACCTACGATCTGACTAGCAGGACCAAGGTGTTAAACGGCTCCCCTGGCTATGCCTCTTGCTTACTCTCATGTAGTTCC
Kd (L-selectin (LS-Rg) [1]; hairpin): 0.31 nM

B2: 139 (ssDNA)
DNA: CTACCTACGATCTGACTAGCGGACAAGGCACTCGACGTAGTTTATAACTCCCTCCGGGCCGCTTACTCTCATGTAGTTCC
Kd (L-selectin (LS-Rg) [2]): 0.21 nM

B3: 111 (ssDNA)
DNA: CTACCTACGATCTGACTAGCTACACAAGGTGCTAAACGTAGAGCCAGATCGGATCTGAGCGCTTACTCTCATGTAGTTCC
Kd (E-selectin (ES-Rg)): 1200 nM
Kd (P-selectin (PS-Rg)): 840 nM
Kd (L-selectin (LS-Rg) [3]): 0.33 nM

B4: 179 (ssDNA)
DNA: CTACCTACGATCTGACTAGCCACATGCCTGACGCGGTACAAGGCCTGGACGTAACGTTGGCTTACTCTCATGTAGTTCC
Kd (L-selectin (LS-Rg) [4]): 0.18 nM

TAGCCAAGGTAACCAGTACAAGGTGCTAAACGTAATGGCTTCGGCTTAC (ssDNA) [201T1 (49-mer)]
Kd (L-selectin (LS-Rg) [5]): 4.8 nM

GTAACCAGTACAAGGTGCTAAACGTAATGGCTTCGGCTTAC (ssDNA) [201T3 (41-mer)]
Kd (L-selectin (LS-Rg) [5]): 43 nM

B5: 214 (ssDNA)
DNA: CTACCTACGATCTGACTAGCTGATGCGACTTTAGTCGAACGTTACTGGGGCTCAGAGGACAGCTTACTCTCATGTAGTTCC
Kd (L-selectin (LS-Rg) [6]): 0.66 nM

B6: 206 (ssDNA)
DNA: CTACCTACGATCTGACTAGCAGCGTTGTACGGGGTTACACACAACGATTTAGATGCTCTGCTTACTCTCATGTAGTTCC
Kd (E-selectin (ES-Rg)): 100 nM
Kd (P-selectin (PS-Rg)): 600 nM
Kd (L-selectin (LS-Rg) [7]): 0.33 nM

B7: 181 (ssDNA)
DNA: CTACCTACGATCTGACTAGCCATCAAGGACTTTGCCCGAAACCCTAGGTTCACGTGTGGGGCTTACTCTCATGTAGTTCC
Kd (L-selectin (LS-Rg) [1]): 0.084 nM
Kd (E-selectin (ES-Rg)): 37 nM
Kd (P-selectin (PS-Rg)): 1600 nM

B8: 109 (ssDNA)
DNA: CTACCTACGATCTGACTAGCCCACCGTGATGCACGATACATGAGGGTGTGTCAGCGCATGCTTACTCTCATGTAGTTCC
Kd (L-selectin (LS-Rg) [8]): 0.19 nM

B9: 11.20 (ssRNA)
RNA: GGGAAAAGCGAAUCAUACACAAGAUUGGUCGUACUGGACAGAGCCGUGGUAGAGGGAUUGGGACAAAGUGUCAGCUCCGCCAGAGACCAACCGAGAA
modifications: 2'-NH2 all C and U
Kd [9]: 2200 nM
Kd [10]: 1.4 nM

B10: 137 (ssDNA)
DNA: CTACCTACGATCTGACTAGCTACCCCTTGGGCCTCATAGACAAGGTCTTAAACGTTAGCGCTTACTCTCATGTAGTTCC
Kd (L-selectin (LS-Rg) [11]): 0.52 nM

B11: 112 (ssDNA)
DNA: CTACCTACGATCTGACTAGCCGCATCCACATAGTTCAAGGGGCTACACGAAATATTGCAGCTTACTCTCATGTAGTTCC
Kd (L-selectin (LS-Rg) [12]): 0.3 nM

B12: 145 (ssDNA)
DNA: CTACCTACGATCTGACTAGCCCCCGAAGAACATTTTACAAGGTGCTAAACGTAAAATCAGGCTTACTCTCATGTAGTTCC
Kd (L-selectin (LS-Rg) [13]): 0.92 nM
